Non-standard residues stand in square brackets, D forms with d. No end group written: not given here. NMeR = CN[C@@H](CCCNC(=N)N)C(=O)O; Nle = CCCC[C@H](N)C(=O)O
Tests used:
[1] = target: T1, CD47 (UniProt Q08722 19-323, limits assumed); assay: Microscale thermophoresis (MST); NT-647-labelled Jurkat or MEC-1 cell membrane preparation held constant, peptide titrated; cyclic peptide PKTD10, FIG. 6
T1 construct: whole, on cells; The assay used a labelled whole membrane preparation from Jurkat or MEC-1 cells, not purified CD47; also called CD47 receptor
T1 sequence (Q08722 19-323 limits assumed): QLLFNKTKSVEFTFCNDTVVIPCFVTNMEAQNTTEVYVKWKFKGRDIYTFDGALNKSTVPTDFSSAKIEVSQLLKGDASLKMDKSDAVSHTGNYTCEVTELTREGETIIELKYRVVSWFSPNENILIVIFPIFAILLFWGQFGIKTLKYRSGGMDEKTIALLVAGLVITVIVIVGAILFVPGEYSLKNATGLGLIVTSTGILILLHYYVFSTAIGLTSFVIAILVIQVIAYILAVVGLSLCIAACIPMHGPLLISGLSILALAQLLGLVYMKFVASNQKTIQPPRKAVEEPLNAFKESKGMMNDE
Description: (§1) Jurkat or Mec-1 cell membrane preparations are labeled using the Nanotemper NT-647 labeling kit as described elsewhere.xliv The labeled preparation is eluted with PBS and stored at 4° C. A stock solution of each peptide is prepared in DMSO (5 mM) and then diluted with PBS. For the peptides evaluated by MST, we have kept the concentration of the NT.115-labeled membrane constant, while the concentration of the ligand (peptide) was varied. After a short incubation the samples were loaded into MST premium glass capillaries and the MST analysis was performed using the Monolith NT.115-pico. […]
(§2) Binding affinity measurements. The binding affinities of peptides, here PKT16, PKTD1, PKTD10, PKTD10-1, PKTD10-3, PKTD10-5, PKDT10-7 and PKTD10-8 for a membrane preparation from Jurkat and/or MEC-1 cells were measured by Microscale Thermophoresis ^xlv on a Monolith NT115-pico system (Nanotemper Technologies, Munich, Germany).
(§3) Binding curve measured by MST. […] A local temperature difference ΔT leads to a local change in molecule concentration (depletion or enrichment), quantified by the Soret coefficient ST: cₕₒₜ/ccold=exP(−STΔT). […] For the peptides evaluated by MST, we have kept the concentration of the NT.115-labeled membrane constant, while the concentration of the ligand (peptide) was varied.

[2] = target: T1, CD47; assay: Microscale thermophoresis (MST); NT-647-labelled Jurkat or MEC-1 cell membrane preparation held constant, peptide titrated; cyclic peptide PKTD1, FIG. 6
Description: as §1, §2, §3

[3] = target: T1, CD47; assay: Microscale thermophoresis (MST); NT-647-labelled Jurkat or MEC-1 cell membrane preparation held constant, peptide titrated; linear peptide PKT16, FIG. 5
Description: as §1, §2, §3

B1: PKTD10 (peptide)
peptide: SRFYVVMWKPPGLSVKVVNS
HELM: PEPTIDE1{S.R.F.Y.V.V.M.W.K.[dP].P.G.L.S.V.K.V.V.N.S}$PEPTIDE1,PEPTIDE1,1:R1-20:R2$$$V2.0
SMILES: CSCC[C@@H]1NC(=O)[C@H](C(C)C)NC(=O)[C@H](C(C)C)NC(=O)[C@H](Cc2ccc(O)cc2)NC(=O)[C@H](Cc2ccccc2)NC(=O)[C@H](CCCNC(=N)N)NC(=O)[C@H](CO)NC(=O)[C@H](CO)NC(=O)[C@H](CC(N)=O)NC(=O)[C@H](C(C)C)NC(=O)[C@H](C(C)C)NC(=O)[C@H](CCCCN)NC(=O)[C@H](C(C)C)NC(=O)[C@H](CO)NC(=O)[C@H](CC(C)C)NC(=O)CNC(=O)[C@@H]2CCCN2C(=O)[C@H]2CCCN2C(=O)[C@H](CCCCN)NC(=O)[C@H](Cc2c[nH]c3ccccc23)NC1=O
notes: Cyclic peptide, linear representation -S-R-F-Y-V-V-M-W-K-p-P-G-L-S-V-K-V-V-N-S-
[1]
  Kd: 49 nM

B2: PKTD1 (peptide)
peptide: SRFYVVMWKPPGISVKVVKS
HELM: PEPTIDE1{S.R.F.Y.V.V.M.W.K.[dP].P.G.I.S.V.K.V.V.K.S}$PEPTIDE1,PEPTIDE1,1:R1-20:R2$$$V2.0
SMILES: CC[C@H](C)[C@@H]1NC(=O)CNC(=O)[C@@H]2CCCN2C(=O)[C@H]2CCCN2C(=O)[C@H](CCCCN)NC(=O)[C@H](Cc2c[nH]c3ccccc23)NC(=O)[C@H](CCSC)NC(=O)[C@H](C(C)C)NC(=O)[C@H](C(C)C)NC(=O)[C@H](Cc2ccc(O)cc2)NC(=O)[C@H](Cc2ccccc2)NC(=O)[C@H](CCCNC(=N)N)NC(=O)[C@H](CO)NC(=O)[C@H](CO)NC(=O)[C@H](CCCCN)NC(=O)[C@H](C(C)C)NC(=O)[C@H](C(C)C)NC(=O)[C@H](CCCCN)NC(=O)[C@H](C(C)C)NC(=O)[C@H](CO)NC1=O
notes: Cyclic peptide, linear representation -S-R-F-Y-V-V-M-W-K-p-P-G-I-S-V-K-V-V-K-S-
[2]
  Kd: 1.9 nM

## [dK][NMeR]FYVV[Nle]WK[dK] (also called linear PKT16 peptide) [PKT16 [(D)Lys-(N-Me)Arg-Phe-Tyr-Val-Val-Nle-Trp-Lys-(D)Lys]]
[3]
  Kd: 1600 nM

From patent US20190135865A1 (SORBONNE UNIVERSITE, published 2019)
